Experimental data reported in patent publication US20240084042A1 (Genentech, published 2024).
Where two headings read alike, the source gives them in different places.

Assays:
Assay in all cases: SPR, one-armed monovalent antibody
human KLK5 [1] = biological target: T1, human KLK5 (human, UniProt Q9Y337 67-293)
T1 construct: also called huKLK5; KLK5 AMC
T1 sequence: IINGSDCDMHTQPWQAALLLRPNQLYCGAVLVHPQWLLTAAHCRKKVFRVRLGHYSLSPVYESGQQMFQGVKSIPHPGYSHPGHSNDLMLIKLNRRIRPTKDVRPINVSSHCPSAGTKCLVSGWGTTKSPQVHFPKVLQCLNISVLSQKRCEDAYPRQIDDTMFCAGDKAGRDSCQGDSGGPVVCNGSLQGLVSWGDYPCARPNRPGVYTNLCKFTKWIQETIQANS

cynomolgus monkey KLK5 [2] = biological target: T2, cynomolgus monkey KLK5 (cynomolgus monkey, UniProt Q9Y337 67-293 (human entry))
T2 construct: also called cyno KLK5
T2 chain: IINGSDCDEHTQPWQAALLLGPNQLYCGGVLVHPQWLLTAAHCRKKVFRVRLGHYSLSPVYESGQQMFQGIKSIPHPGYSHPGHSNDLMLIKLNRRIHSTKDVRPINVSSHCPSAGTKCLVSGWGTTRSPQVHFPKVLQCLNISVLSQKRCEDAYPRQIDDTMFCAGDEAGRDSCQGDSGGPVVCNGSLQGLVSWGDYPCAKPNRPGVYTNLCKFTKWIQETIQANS

human KLK5 [3] = biological target: T1, human KLK5; remark: listed apart in the source
cynomolgus monkey KLK5 [4] = biological target: T2, cynomolgus monkey KLK5

| Binder | Kd (human KLK5 [1]) [nM] | koff (human KLK5 [1]) [s⁻¹] | kon (human KLK5 [1]) [M⁻¹ s⁻¹] | Kd (cynomolgus monkey KLK5 [2]) [nM] | koff (cynomolgus monkey KLK5 [2]) [s⁻¹] | kon (cynomolgus monkey KLK5 [2]) [M⁻¹ s⁻¹] | Kd (human KLK5 [3]) [nM] | koff (human KLK5 [3]) [s⁻¹] | kon (human KLK5 [3]) [M⁻¹ s⁻¹] | Kd (cynomolgus monkey KLK5 [4]) [nM] | koff (cynomolgus monkey KLK5 [4]) [s⁻¹] | kon (cynomolgus monkey KLK5 [4]) [M⁻¹ s⁻¹] |
| --- | --- | --- | --- | --- | --- | --- | --- | --- | --- | --- | --- | --- |
| OA.hu.9H5.H14L4.G54A.G98Q.H89V.S95Y (antibody, V domains shown, One-armed (OA) monovalent anti-KLK5 antibody with a human IgG1 Fc, with Q38E/Q39K; constant regions and dummy Fc chain not specified) VH: EVQLVESGGGLIQPGGSLRLSCAASGFSLSSYGVSWVRKAPGKGLEYVGFIGSAGFAYYASWAKSRFTISRDNSKNTLYLQMNSLRAEDTAVYYCARDDVQGGKSLDIWGQGTLVTVSS VL: DIQMTQSPSSLSASVGDRVTITCQASQSISSYLSWYQEKPGKAPKLLIYSASTLASGVPSRFSGSGSGTDFTLTISSLQPEDFATYYCVQDYTSYNVDNTFGGGTKVEIK | 0.0121 | 2.39e-05 | 1.98e+06 | 0.0146 | 5.75e-05 | 3.95e+06 |  |  |  |  |  |  |
| OA.hu.9H5.H14L4.G54A.H89V (antibody, V domains shown, One-armed (OA) monovalent anti-KLK5 antibody with a human IgG1 Fc, with Q38E/Q39K; constant regions and dummy Fc chain not specified) VH: EVQLVESGGGLIQPGGSLRLSCAASGFSLSSYGVSWVRKAPGKGLEYVGFIGSAGFAYYASWAKSRFTISRDNSKNTLYLQMNSLRAEDTAVYYCARDDVGGGKSLDIWGQGTLVTVSS VL: DIQMTQSPSSLSASVGDRVTITCQASQSISSYLSWYQEKPGKAPKLLIYSASTLASGVPSRFSGSGSGTDFTLTISSLQPEDFATYYCVQDYTSSNVDNTFGGGTKVEIK | 0.0102 | 3.85e-05 | 3.79e+06 | 0.00893 | 0.00011 | 1.24e+07 |  |  |  |  |  |  |
| OA.hu.9H5.H14L4.G54A.S95Y (antibody, V domains shown, One-armed (OA) monovalent anti-KLK5 antibody with a human IgG1 Fc, with Q38E/Q39K; constant regions and dummy Fc chain not specified) VH: EVQLVESGGGLIQPGGSLRLSCAASGFSLSSYGVSWVRKAPGKGLEYVGFIGSAGFAYYASWAKSRFTISRDNSKNTLYLQMNSLRAEDTAVYYCARDDVGGGKSLDIWGQGTLVTVSS VL: DIQMTQSPSSLSASVGDRVTITCQASQSISSYLSWYQEKPGKAPKLLIYSASTLASGVPSRFSGSGSGTDFTLTISSLQPEDFATYYCHQDYTSYNVDNTFGGGTKVEIK | 0.0162 | 1.6e-05 | 992000 | 0.0175 | 8.44e-05 | 4.82e+06 |  |  |  |  |  |  |
| OA.hu.9H5.H14L4.G98Q.H89V (antibody, V domains shown, One-armed (OA) monovalent anti-KLK5 antibody with a human IgG1 Fc, with Q38E/Q39K; constant regions and dummy Fc chain not specified) VH: EVQLVESGGGLIQPGGSLRLSCAASGFSLSSYGVSWVRKAPGKGLEYVGFIGSGGFAYYASWAKSRFTISRDNSKNTLYLQMNSLRAEDTAVYYCARDDVQGGKSLDIWGQGTLVTVSS VL: DIQMTQSPSSLSASVGDRVTITCQASQSISSYLSWYQEKPGKAPKLLIYSASTLASGVPSRFSGSGSGTDFTLTISSLQPEDFATYYCVQDYTSSNVDNTFGGGTKVEIK | 0.0186 | 4.46e-05 | 2.4e+06 | 0.00978 | 0.000145 | 1.48e+07 |  |  |  |  |  |  |
| OA.hu.9H5.H14L4.G54A.H89V.S95Y (antibody, V domains shown, One-armed (OA) monovalent anti-KLK5 antibody with a human IgG1 Fc, with Q38E/Q39K; constant regions and dummy Fc chain not specified) VH: EVQLVESGGGLIQPGGSLRLSCAASGFSLSSYGVSWVRKAPGKGLEYVGFIGSAGFAYYASWAKSRFTISRDNSKNTLYLQMNSLRAEDTAVYYCARDDVGGGKSLDIWGQGTLVTVSS VL: DIQMTQSPSSLSASVGDRVTITCQASQSISSYLSWYQEKPGKAPKLLIYSASTLASGVPSRFSGSGSGTDFTLTISSLQPEDFATYYCVQDYTSYNVDNTFGGGTKVEIK | 0.0196 | 1.37e-05 | 699000 | 0.0172 | 7.36e-05 | 4.28e+06 |  |  |  |  |  |  |
| OA.hu.9H5.H14L4.G54A.G98Q.H89V (antibody, V domains shown, One-armed (OA) monovalent anti-KLK5 antibody with a human IgG1 Fc, with Q38E/Q39K; constant regions and dummy Fc chain not specified) VH: EVQLVESGGGLIQPGGSLRLSCAASGFSLSSYGVSWVRKAPGKGLEYVGFIGSAGFAYYASWAKSRFTISRDNSKNTLYLQMNSLRAEDTAVYYCARDDVQGGKSLDIWGQGTLVTVSS VL: DIQMTQSPSSLSASVGDRVTITCQASQSISSYLSWYQEKPGKAPKLLIYSASTLASGVPSRFSGSGSGTDFTLTISSLQPEDFATYYCVQDYTSSNVDNTFGGGTKVEIK | 0.000348 | 2.97e-06 | 8.54e+06 | 0.00298 | 6.52e-05 | 2.19e+07 |  |  |  |  |  |  |
| OA.hu.9H5.H14L4.G98Q.H89V.S95Y (antibody, V domains shown, One-armed (OA) monovalent anti-KLK5 antibody with a human IgG1 Fc, with Q38E/Q39K; constant regions and dummy Fc chain not specified) VH: EVQLVESGGGLIQPGGSLRLSCAASGFSLSSYGVSWVRKAPGKGLEYVGFIGSGGFAYYASWAKSRFTISRDNSKNTLYLQMNSLRAEDTAVYYCARDDVQGGKSLDIWGQGTLVTVSS VL: DIQMTQSPSSLSASVGDRVTITCQASQSISSYLSWYQEKPGKAPKLLIYSASTLASGVPSRFSGSGSGTDFTLTISSLQPEDFATYYCVQDYTSYNVDNTFGGGTKVEIK | 0.0199 | 4.91e-05 | 2.47e+06 | 0.033 | 0.000133 | 4.02e+06 |  |  |  |  |  |  |
| OA.hu.9H5.H14L4.G98Q.S95Y (antibody, V domains shown, One-armed (OA) monovalent anti-KLK5 antibody with a human IgG1 Fc, with Q38E/Q39K; constant regions and dummy Fc chain not specified) VH: EVQLVESGGGLIQPGGSLRLSCAASGFSLSSYGVSWVRKAPGKGLEYVGFIGSGGFAYYASWAKSRFTISRDNSKNTLYLQMNSLRAEDTAVYYCARDDVQGGKSLDIWGQGTLVTVSS VL: DIQMTQSPSSLSASVGDRVTITCQASQSISSYLSWYQEKPGKAPKLLIYSASTLASGVPSRFSGSGSGTDFTLTISSLQPEDFATYYCHQDYTSYNVDNTFGGGTKVEIK | 0.0502 | 3.94e-05 | 785000 | 0.0361 | 0.000145 | 4.02e+06 |  |  |  |  |  |  |
| OA.hu.9H5.H14L4 (antibody, V domains shown, One-armed (OA) monovalent anti-KLK5 antibody with a human IgG1 Fc, with Q38E/Q39K; constant regions and dummy Fc chain not specified) VH: EVQLVESGGGLIQPGGSLRLSCAASGFSLSSYGVSWVRKAPGKGLEYVGFIGSGGFAYYASWAKSRFTISRDNSKNTLYLQMNSLRAEDTAVYYCARDDVGGGKSLDIWGQGTLVTVSS VL: DIQMTQSPSSLSASVGDRVTITCQASQSISSYLSWYQEKPGKAPKLLIYSASTLASGVPSRFSGSGSGTDFTLTISSLQPEDFATYYCHQDYTSSNVDNTFGGGTKVEIK | 0.254 | 0.000272 | 1.07e+06 | 0.0623 | 0.000697 | 1.12e+07 |  |  |  |  |  |  |
| OA.hu.9H5.H14L4.G54A.G98Q.S95Y (antibody, V domains shown, One-armed (OA) monovalent anti-KLK5 antibody with a human IgG1 Fc, with Q38E/Q39K; constant regions and dummy Fc chain not specified) VH: EVQLVESGGGLIQPGGSLRLSCAASGFSLSSYGVSWVRKAPGKGLEYVGFIGSAGFAYYASWAKSRFTISRDNSKNTLYLQMNSLRAEDTAVYYCARDDVQGGKSLDIWGQGTLVTVSS VL: DIQMTQSPSSLSASVGDRVTITCQASQSISSYLSWYQEKPGKAPKLLIYSASTLASGVPSRFSGSGSGTDFTLTISSLQPEDFATYYCHQDYTSYNVDNTFGGGTKVEIK | 0.00994 | 2.71e-05 | 2.73e+06 | 0.0154 | 9.18e-05 | 5.97e+06 |  |  |  |  |  |  |
| OA.hu.10C5.L5H28.WT (antibody, V domains shown, One-armed (OA) monovalent anti-KLK5 antibody with a human IgG1 Fc, without Q38E/Q39K; constant regions and dummy Fc chain not specified) VH: EVQLVESGGGLVQPGGSLRLSCAASGFSLSSYGVTWVRQAPGKGLEWIGYITSNYGVSYYASWAKSRSTISRDTSKNTVYLQMGSLRAEDMAVYYCARENPDYGYAYDAWGQGTTVTVSS VL: AIRMTQSPSSFSASTGDRVTITCQASESISNELSWYQQKPGKAPKLLIYYASTLASGVPSRFSGSGSGTDFTLTISSLQPEDFATYYCAQGFGSSGVENVFGGGTKVEIK |  |  |  |  |  |  | 0.102 | 0.00128 | 1.25e+07 | 0.371 | 0.00424 | 1.14e+07 |
| OA.hu.10C5.N53V.F92Y (antibody, V domains shown, One-armed (OA) monovalent anti-KLK5 antibody with a human IgG1 Fc, with Q38E/Q39K; constant regions and dummy Fc chain not specified) VH: EVQLVESGGGLVQPGGSLRLSCAASGFSLSSYGVTWVRKAPGKGLEWIGYITSVYGVSYYASWAKSRSTISRDTSKNTVYLQMGSLRAEDMAVYYCARENPDYGYAYDAWGQGTTVTVSS VL: AIRMTQSPSSFSASTGDRVTITCQASESISNELSWYQEKPGKAPKLLIYYASTLASGVPSRFSGSGSGTDFTLTISSLQPEDFATYYCAQGYGSSGVENVFGGGTKVEIK |  |  |  |  |  |  | 0.00382 | 2.45e-05 | 6.41e+06 | 0.00885 | 0.000161 | 1.82e+07 |
| OA.hu.10C5.N53V.F92Y.S95F (antibody, V domains shown, One-armed (OA) monovalent anti-KLK5 antibody with a human IgG1 Fc, with Q38E/Q39K; constant regions and dummy Fc chain not specified) VH: EVQLVESGGGLVQPGGSLRLSCAASGFSLSSYGVTWVRKAPGKGLEWIGYITSVYGVSYYASWAKSRSTISRDTSKNTVYLQMGSLRAEDMAVYYCARENPDYGYAYDAWGQGTTVTVSS VL: AIRMTQSPSSFSASTGDRVTITCQASESISNELSWYQEKPGKAPKLLIYYASTLASGVPSRFSGSGSGTDFTLTISSLQPEDFATYYCAQGYGSFGVENVFGGGTKVEIK |  |  |  |  |  |  | 0.000853 | 8.65e-06 | 1.01e+07 | 0.00376 | 5.72e-05 | 1.52e+07 |
| OA.hu.10C5.N53V (antibody, V domains shown, One-armed (OA) monovalent anti-KLK5 antibody with a human IgG1 Fc, without Q38E/Q39K; constant regions and dummy Fc chain not specified) VH: EVQLVESGGGLVQPGGSLRLSCAASGFSLSSYGVTWVRQAPGKGLEWIGYITSVYGVSYYASWAKSRSTISRDTSKNTVYLQMGSLRAEDMAVYYCARENPDYGYAYDAWGQGTTVTVSS VL: AIRMTQSPSSFSASTGDRVTITCQASESISNELSWYQQKPGKAPKLLIYYASTLASGVPSRFSGSGSGTDFTLTISSLQPEDFATYYCAQGFGSSGVENVFGGGTKVEIK |  |  |  |  |  |  | 0.0135 | 9.23e-05 | 6.84e+06 | 0.0355 | 0.00052 | 1.46e+07 |
